The source of these data is patent US20160046716A1 (Dana-Farber, published 2016).

The target of test [1] is MICA antigen (UniGene Hs.130838) with a C-terminal BirA tag (human) (UniProt Q29983). The experiment in a line: flow cytometry of MICA-coated streptavidin beads, Alexa488 anti-human IgG; antibody at 0.05µg/ml; streptavidin bead without MICA: 2.18. (A flow cytometer gives signals particle by particle.)
Test [2] shares this target. The experiment in a line: flow cytometry of MICA-coated streptavidin beads, Alexa488 anti-human IgG; antibody at 1.2µg/ml; streptavidin bead without MICA: 2.16.
For test [3] the target is unchanged. Put plainly: flow cytometry of MICA-coated streptavidin beads, Alexa488 anti-human IgG; antibody at 30µg/ml; streptavidin bead without MICA: 3.53.
Test [4] shares this target. The experiment in a line: flow cytometry of MICA-coated streptavidin beads, Alexa488 anti-human IgG; antibody at 0.24µg/ml; streptavidin bead without MICA: 2.3.
Test [5] deals with human MICA on transduced B16 melanoma cells (human) (UniProt Q29983). The experiment in a line: […], antibody at 10 ug/ml; […].
The target of test [6] is MICA antigen (UniGene Hs.130838) with a C-terminal BirA tag (human) (UniProt Q29983). The experiment in a line: flow cytometry of MICA-coated streptavidin beads, Alexa488 anti-human IgG; antibody at 6µg/ml; streptavidin bead without MICA: 2.63.
Test [7] has the same target. The experiment in a line: flow cytometry of MICA-coated streptavidin beads, antibody directly conjugated to PE; legend box says 0.024ug, the label inside the plot says 0.01µg/ml (they disagree); streptavidin bead without MICA: 1.95.
In test [8] the target is human MICA on transduced B16 melanoma cells (human) (UniProt Q29983). The experiment in a line: flow cytometry of B16 cells transduced with human MICA, antibody at 10 ug/ml; unstained 11.4; the same antibody on untransduced B16: 7.49 (unstained 7.12).
Test [9] addresses MICA antigen (UniGene Hs.130838) with a C-terminal BirA tag (human) (UniProt Q29983). The experiment in a line: flow cytometry of MICA-coated streptavidin beads, antibody directly conjugated to PE; legend box says 0.12ug, the label inside the plot says 0.05µg/ml (they disagree); streptavidin bead without MICA: 1.95.
The target is the same in test [10]. The experiment in a line: flow cytometry of MICA-coated streptavidin beads, antibody directly conjugated to PE; legend box says 0.0002ug, label inside the plot 0.002µg/ml; streptavidin bead without MICA: 2.16.
The target is the same in test [11]. Put plainly: flow cytometry of MICA-coated streptavidin beads, antibody directly conjugated to PE; legend box says 0.001ug, the label inside the plot says 0.24µg/ml (they disagree); streptavidin bead without MICA: 1.95.
For test [12] the target is unchanged. The experiment in a line: flow cytometry of MICA-coated streptavidin beads, antibody directly conjugated to PE; legend box says 0.005ug, the label inside the plot says 1.2µg/ml (they disagree); streptavidin bead without MICA: 1.98.
The target in test [13] is T1, recombinant MICA alpha 3 domain (human, UniProt Q29983 206-299).
T1 construct: domain: alpha 3 domain; also called Alpha 3 MICA Domain
T1 sequence (looked up): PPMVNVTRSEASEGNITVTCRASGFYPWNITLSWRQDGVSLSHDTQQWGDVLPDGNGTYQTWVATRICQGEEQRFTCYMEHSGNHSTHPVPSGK
Put plainly: cytometric bead assay: biotinylated MICA alpha 3 domain on streptavidin beads, FITC anti-human IgG, flow cytometry.

Test [14] has as its target T2, recombinant MICA*009 conjugated to Luminex beads (commercial kit) (human, UniProt Q29983 26-307).
T2 chain: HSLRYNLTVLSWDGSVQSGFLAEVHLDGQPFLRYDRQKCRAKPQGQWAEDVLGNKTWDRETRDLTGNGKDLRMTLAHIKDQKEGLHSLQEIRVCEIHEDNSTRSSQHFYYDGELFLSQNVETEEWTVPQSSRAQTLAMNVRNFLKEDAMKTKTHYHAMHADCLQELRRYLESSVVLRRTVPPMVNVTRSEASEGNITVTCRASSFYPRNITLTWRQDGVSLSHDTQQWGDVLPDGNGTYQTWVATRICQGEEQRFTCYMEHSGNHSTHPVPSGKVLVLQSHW
The experiment in a line: Luminex bead assay (One Lambda kit), PE anti-human IgG secondary; bars assigned by their order in the legend box.

Sequence of MICA antigen (UniGene Hs.130838) with a C-terminal BirA tag (human) (Q29983 other isoform, or with tags, fused parts or gaps limits assumed): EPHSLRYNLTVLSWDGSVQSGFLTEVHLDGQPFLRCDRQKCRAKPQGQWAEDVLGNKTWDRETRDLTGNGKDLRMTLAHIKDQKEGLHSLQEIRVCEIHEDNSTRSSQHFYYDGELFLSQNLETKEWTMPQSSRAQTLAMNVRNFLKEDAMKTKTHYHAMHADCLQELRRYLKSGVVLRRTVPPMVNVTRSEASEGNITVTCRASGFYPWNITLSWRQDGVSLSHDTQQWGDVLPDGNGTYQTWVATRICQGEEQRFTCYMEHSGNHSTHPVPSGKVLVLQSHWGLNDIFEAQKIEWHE
Sequence of human MICA on transduced B16 melanoma cells (human) (Q29983 24-383): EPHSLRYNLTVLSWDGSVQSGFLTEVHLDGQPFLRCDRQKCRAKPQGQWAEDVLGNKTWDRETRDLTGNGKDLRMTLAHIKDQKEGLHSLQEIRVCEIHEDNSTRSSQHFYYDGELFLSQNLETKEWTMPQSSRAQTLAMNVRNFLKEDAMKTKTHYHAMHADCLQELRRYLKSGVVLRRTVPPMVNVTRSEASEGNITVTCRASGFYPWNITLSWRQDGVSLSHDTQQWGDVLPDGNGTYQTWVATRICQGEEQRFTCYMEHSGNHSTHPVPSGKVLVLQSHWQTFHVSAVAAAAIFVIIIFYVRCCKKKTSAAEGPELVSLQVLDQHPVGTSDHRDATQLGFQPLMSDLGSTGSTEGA

In the case of “negative control antibody (TTCF specific)”, the fluorescence value (statistic not given, FL1-H) in [1] amounted to 2.23; in [2], 2.27; in test [3], 3.43; in test [4], 2.28; in test [6], 2.62. In test [5], the Geom. Mean:FL1-H came to 11.5.
Regarding “commercial anti-MICA/MICB monoclonal antibody (clone 6D4, BioLegend)”, the fluorescence value (statistic not given, FL2-H) in test [7] worked out at 194; in [9], 391; in test [10], 4.31; in [11] it was 16.8; in [12], 65.9. Also, the Geom. Mean:FL1-H in [8] worked out at 188.

B1: CM24002 Ab2 (antibody, V domains shown)
VH: QVQLQESGPGLVEPSGTLSLTCTVSGGSISRSNWWSWVRQPPGEGLEWIGEIHHIGRSSYNPSLKSRVTMSVDKSQNQFSLRLTSVTAADTAVYYCAKNGYYAMDVWGQGTTVTVSS
VL: EIVLTQSPGTLSLSPGERATLSCRASQSVSSDFLAWYQQKPGQAPRLLIYATSFRATGISDRFSGSGSGTDFSLTINRLEPEDFAVYYCQHYRSSPPWYTFAQGTKLDMRRTVAAPSV
notes: also called anti-MICA antibody ID-6; antibody ID 6
Take B1: the binding result in [13] was “no binding (tested: 10 µg/ml)”.

B2: MICA-Ab20 (antibody, V domains shown)
VH: QVQLQQWGAGLLKPSETLALTCAVSGGSFTDHYWSWIRQAPGKGLEWIGEINHSGVTNYNPSLKSRLTISVDTSKSQFSLRLTSVTAADTALYYCAKTGLYYDDVWGTFRPRGGFDSWGQGTLVTVSS
VL: DIVMTQSPDSLAVSLGERATINCKSSQSILYSSDNKNYLAWYQHKPGQPPKLLFYWASIRESGVPDRFSGGGSGTDFTLTISSLQAEDVAVYYCQQYYSPPCSFGQGTKLEIQ
notes: also called anti-MICA antibody ID-1; antibody ID 1
For the molecule B2, in [14], the binding result was “no binding (tested: 200 µg/ml)”.

B3: CM33322 Ab11 (antibody, V domains shown)
VH: QVQLQESGPGLVKPSENLSLTCTVSDASMSDYHWSWIRQAAGKGLEWIGRMYSTGSPYYKPSLKGRVTMSIDTSKNQFSLKLASVTAADTAIYYCASGQHIGGWVPPDFWGQGTLVTVSS
VL: DIVMTQTPLSSPVTLGQPASISCRSSEGLVYSDGDTYLSWFHQRPGQPPRLLIYKISNRFSGVPDRFSGSGAGTDFTLKISRVEAEDVGVYYCMQATHFPWTFGQGTKVEVKR
notes: also called CM33322 mAb11; CM33322 11
In the case of B3, the binding result in test [13] is “no binding (tested: 10 µg/ml)”.

B4: CM24002 Ab4 (antibody, V domains shown)
VH: QVQLQESGPGLVKPSGTLSLTCAVSGASITNGAWWSWVRQPPGKGLEWIGEIYLNGNTNSNPSLKSRVIISVDKSKNHFSLTLNSVTAADTAVYYCAKNAAYNLEFWGQGALVTVSS
VL: EIVLTQSPGTLSLSPGERATLSCRASQTVSSPYVAWYQQKRGQAPRLLIYGASTRATGIPDRFSGSGSGTDFTLTISRLEPEDFAVYYCQQYDRSYYYTFGQGTKLEIK
notes: also called anti-MICA antibody ID-7; antibody ID 7
For the molecule B4, the binding result in [13] was “no binding (tested: 10 µg/ml)”.
